# Test results taken from IntAct's records for PubMed 21471201.
# B1: NAD-dependent protein deacetylase sirtuin-1 (Homo sapiens), Q96EB6 (parent)
# chain: MADEAALALQPGGSPSAAGADREAASSPAGEPLRKRPRRDGPGLERSPGEPGGAAPEREVPAAARGCPGAAAAALWREAEAEAAAAGGEQEAQATAAAGEGDNGPGLQGPSREPPLADNLYDEDDDDEGEEEEEAAAAAIGYRDNLLFGDEIITNGFHSCESDEEDRASHASSSDWTPRPRIGPYTFVQQHLMIGTDPRTILKDLLPETIPPPELDDMTLWQIVINILSEPPKRKKRKDINTIEDAVKLLQECKKIIVLTGAGVSVSCGIPDFRSRDGIYARLAVDFPDLPDPQAMFDIEYFRKDPRPFFKFAKEIYPGQFQPSLCHKFIALSDKEGKLLRNYTQNIDTLEQVAGIQRIIQCHGSFATASCLICKYKVDCEAVRGDIFNQVVPRCPRCPADEPLAIMKPEIVFFGENLPEQFHRAMKYDKDEVDLLIVIGSSLKVRPVALIPSSIPHEVPQILINREPLPHLHFDVELLGDCDVIINELCHRLGGEYAKLCCNPVKLSEITEKPPRTQKELAYLSELPPTPLHVSEDSSSPERTSPPDSSVIVTLLDQAAKSNDDLDVSESKGCMEEKPQEVQTSRNVESIAEQMENPDLKNVGSSTGEKNERTSVAGTVRKCWPNRVAKEQISRRLDGNQYLFLPPNRYIFHGAEVYSDSEDDVLSSSSCGSNSDSGTCQSPSLEEPMEDESEIEEFYNGLEDEPDVPERAGGAGFGTDGDDQEAINEAISVKQEVTDMNYPSNKS
# Variants of: B1
# Conditions: with rptor_human RPTOR
row,Variant,effect of a mutation on the interaction
1,F474A,decreasing interaction
